T1: human β-cardiac myosin 2-hep heavy chain, wild type (human | )
T1 chain: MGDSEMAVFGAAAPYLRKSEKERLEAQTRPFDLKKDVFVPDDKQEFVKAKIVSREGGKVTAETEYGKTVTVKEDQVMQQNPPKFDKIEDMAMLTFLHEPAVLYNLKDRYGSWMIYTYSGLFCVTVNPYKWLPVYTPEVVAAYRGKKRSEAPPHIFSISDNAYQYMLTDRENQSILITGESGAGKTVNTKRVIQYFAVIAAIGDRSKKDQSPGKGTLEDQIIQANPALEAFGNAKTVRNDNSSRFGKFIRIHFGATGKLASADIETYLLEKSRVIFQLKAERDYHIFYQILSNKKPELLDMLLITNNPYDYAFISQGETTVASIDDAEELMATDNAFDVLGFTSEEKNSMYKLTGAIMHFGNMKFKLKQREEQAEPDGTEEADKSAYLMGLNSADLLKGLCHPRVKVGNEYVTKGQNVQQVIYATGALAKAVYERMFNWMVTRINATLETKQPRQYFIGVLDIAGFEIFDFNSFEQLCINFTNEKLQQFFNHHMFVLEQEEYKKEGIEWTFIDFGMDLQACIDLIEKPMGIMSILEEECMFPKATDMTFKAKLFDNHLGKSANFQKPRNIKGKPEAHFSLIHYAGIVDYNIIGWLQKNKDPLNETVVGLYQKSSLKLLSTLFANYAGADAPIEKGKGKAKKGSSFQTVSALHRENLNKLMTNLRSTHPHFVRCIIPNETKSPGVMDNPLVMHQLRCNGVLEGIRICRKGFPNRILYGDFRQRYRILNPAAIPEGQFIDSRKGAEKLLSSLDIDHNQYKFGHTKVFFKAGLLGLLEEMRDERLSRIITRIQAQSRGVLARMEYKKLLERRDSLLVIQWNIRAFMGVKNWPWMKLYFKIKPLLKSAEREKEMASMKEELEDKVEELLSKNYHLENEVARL


What was measured:
[1] = target: T1, human β-cardiac myosin 2-hep heavy …; test: light chain loading gel assay (Coomassie SDS-PAGE densitometry of the co-purified complex); human RLC purified from E. coli added to myosin held on anti-FLAG resin after depletion of native mouse RLC (>2.5 hr, 4°C); buffer exchanged 5x in a 50 or 100 kDa filter to remove unbound light chains; dilution series 10-1 pmol per lane, 700 nm scan, slope of light chain over slope of heavy chain; settings: both partners purified
[2] = target: T1, human β-cardiac myosin 2-hep heavy …; test: light chain loading gel assay (Coomassie SDS-PAGE densitometry of the co-purified complex); ELC co-expressed with the 2-hep heavy chain in C2C12 cells and purified through the FLAG tag of the ELC; buffer exchanged 5x in a 50 or 100 kDa filter to remove unbound light chains; dilution series 10-1 pmol per lane, 700 nm scan, slope of light chain over slope of heavy chain; settings: partners not purified

Row | RLC/HC ratio (Coomassie band density, light chain over heavy chain) [1] | ELC/HC ratio (Coomassie band density, light chain over heavy chain) [2] | Binder
1 | 0.11 |  | human regulatory light chain (MYL2) (natural protein, UniProt P10916 1-166, looked up, human regulatory light chain, MYL2; N-terminal His-TEV tag added; also called RLC; source: E. coli, purified (as in Nag et al., 2017)) MAPKKAKKRAGGANSNVFSMFEQTQIQEFKEAFTIMDQNRDGFIDKNDLRDTFAALGRVNVKNEEIDEMIKEAPGPINFTVFLTMFGEKLKGADPEETILNAFKVFDPEGKGVLKADYVREMLTTQAERFSKEEVDQMFAAFPPDVTGNLDYKNLVHIITHGEEKD
2 |  | 0.19 | human essential light chain (MYL3) (natural protein, human essential light chain, MYL3; N-terminal FLAG tag followed by a TEV protease site; TEV protease cleaved the ELC-myosin complex off the anti-FLAG resin; also called ELC; not shown: FLAG, N-terminal, cleaved) not shown

— article PMC9242648, “Hypertrophic cardiomyopathy mutations in the pliant and light chain-binding regions of the lever arm of human β-cardiac myosin have divergent effects on myosin function” (eLife, 2022)
